From the supplement of paper PMC9116672
± gives the standard deviation of the averaged measurements or the uncertainty stated by the source.

Tests used:
[1] = duplex formation enthalpy ΔH (Van't Hoff fit of HRM Tm); higher = less exothermic duplex formation; conditions: temperature for dG: 50 °C, NaCl: 500 mM (unadjusted)
Procedure: (§1)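 Duplex of the listed DNA strand with its complement, in 1x NNE buffer (500 mM NaCl, pH 7.0) with 1x EvaGreen. ΔH and ΔS come from a Van't Hoff linear fit of 1/Tm against ln(CT/4) over 1-20 uM, using HRM Tm values.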

[2] = duplex formation entropy ΔS (Van't Hoff fit of HRM Tm); higher = smaller entropy loss on duplex formation; conditions: temperature for dG: 50 °C, NaCl: 500 mM (unadjusted)
Procedure: as §1

[3] = duplex formation free energy ΔG50 (Van't Hoff fit of HRM Tm); higher = less stable duplex; conditions: temperature for dG: 50 °C, NaCl: 500 mM (unadjusted)
Procedure: as §1

[4] = duplex melting temperature (HRM, EvaGreen); higher = more stable duplex
Procedure: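 Listed DNA strand annealed 1:1 with its complementary strand (95 °C 5 min, 0.1 °C/s to 20 °C). Melted in 1x NNE buffer (500 mM NaCl, 10 mM Na2HPO4, 1 mM EDTA, pH 7.0) with 1x EvaGreen on a LightCycler96 (37 to 97 °C, 0.1 °C/s). Tm is the peak of -dF/dT at the stated total duplex concentration; 4 replicates are averaged. PS oligos are non-stereospecific (Rp/Sp mixtures).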

[5] = backbone: PO-PO (both strands phosphodiester DNA)
[6] = backbone: PS-PO (listed strand fully phosphorothioate, complement phosphodiester)
[7] = backbone: PS-PS (both strands fully phosphorothioate)
[8] = duplex concentration 1 µM, backbone: PO-PO (both strands phosphodiester DNA)
[9] = duplex concentration 1 µM, backbone: PS-PO (listed strand fully phosphorothioate, complement phosphodiester)
[10] = duplex concentration 1 µM, backbone: PS-PS (both strands fully phosphorothioate)
[11] = duplex concentration 2.5 µM, backbone: PO-PO (both strands phosphodiester DNA)
[12] = duplex concentration 2.5 µM, backbone: PS-PO (listed strand fully phosphorothioate, complement phosphodiester)
[13] = duplex concentration 2.5 µM, backbone: PS-PS (both strands fully phosphorothioate)
[14] = duplex concentration 5 µM, backbone: PO-PO (both strands phosphodiester DNA)
[15] = duplex concentration 5 µM, backbone: PS-PO (listed strand fully phosphorothioate, complement phosphodiester)
[16] = duplex concentration 5 µM, backbone: PS-PS (both strands fully phosphorothioate)
[17] = duplex concentration 7.5 µM, backbone: PO-PO (both strands phosphodiester DNA)
[18] = duplex concentration 7.5 µM, backbone: PS-PO (listed strand fully phosphorothioate, complement phosphodiester)
[19] = duplex concentration 7.5 µM, backbone: PS-PS (both strands fully phosphorothioate)
[20] = duplex concentration 10 µM, backbone: PO-PO (both strands phosphodiester DNA)
[21] = duplex concentration 10 µM, backbone: PS-PO (listed strand fully phosphorothioate, complement phosphodiester)
[22] = duplex concentration 10 µM, backbone: PS-PS (both strands fully phosphorothioate)
[23] = duplex concentration 15 µM, backbone: PO-PO (both strands phosphodiester DNA)
[24] = duplex concentration 15 µM, backbone: PS-PO (listed strand fully phosphorothioate, complement phosphodiester)
[25] = duplex concentration 15 µM, backbone: PS-PS (both strands fully phosphorothioate)
[26] = duplex concentration 20 µM, backbone: PO-PO (both strands phosphodiester DNA)
[27] = duplex concentration 20 µM, backbone: PS-PO (listed strand fully phosphorothioate, complement phosphodiester)
[28] = duplex concentration 20 µM, backbone: PS-PS (both strands fully phosphorothioate)

| Sequence | duplex formation enthalpy ΔH [1, 5] [kcal/mol] | duplex formation enthalpy ΔH [1, 6] [kcal/mol] | duplex formation enthalpy ΔH [1, 7] [kcal/mol] | duplex formation entropy ΔS [2, 5] [cal/mol/K] | duplex formation entropy ΔS [2, 6] [cal/mol/K] | duplex formation entropy ΔS [2, 7] [cal/mol/K] | duplex formation free energy ΔG50 [3, 5] [kcal/mol] | duplex formation free energy ΔG50 [3, 6] [kcal/mol] | duplex formation free energy ΔG50 [3, 7] [kcal/mol] | duplex melting temperature [4, 8] [°C] | duplex melting temperature [4, 9] [°C] | duplex melting temperature [4, 10] [°C] | duplex melting temperature [4, 11] [°C] | duplex melting temperature [4, 12] [°C] | duplex melting temperature [4, 13] [°C] | duplex melting temperature [4, 14] [°C] | duplex melting temperature [4, 15] [°C] | duplex melting temperature [4, 16] [°C] | duplex melting temperature [4, 17] [°C] | duplex melting temperature [4, 18] [°C] | duplex melting temperature [4, 19] [°C] | duplex melting temperature [4, 20] [°C] | duplex melting temperature [4, 21] [°C] | duplex melting temperature [4, 22] [°C] | duplex melting temperature [4, 23] [°C] | duplex melting temperature [4, 24] [°C] | duplex melting temperature [4, 25] [°C] | duplex melting temperature [4, 26] [°C] | duplex melting temperature [4, 27] [°C] | duplex melting temperature [4, 28] [°C] |
| --- | --- | --- | --- | --- | --- | --- | --- | --- | --- | --- | --- | --- | --- | --- | --- | --- | --- | --- | --- | --- | --- | --- | --- | --- | --- | --- | --- | --- | --- | --- |
| GAGCAGAAGGGGTTGT | -68.3 ± 2.9 | -70.9 ± 1.2 | -63.9 ± 2.9 | -173 ± 8.6 | -184 ± 3.5 | -167 ± 8.8 | -12.4 ± 0.17 | -11.48 ± 0.05 | -9.823 ± 0.063 | 63.5 ± 1.7 | 58.19 ± 0.23 | 49.7 ± 0.9 | 66.19 ± 0.54 | 60.88 ± 0.2 | 53.7 ± 0.54 | 68.16 ± 0.65 | 63.08 ± 0.15 | 55.97 ± 0.26 | 69.5 ± 0.73 | 64.37 ± 0.09 | 57.22 ± 0.19 | 70.88 ± 0.2 | 65.29 ± 0.073 | 57.97 ± 0.097 | 72.362 ± 0.008 | 66.57 ± 0.019 | 59.215 ± 0.054 | 73.62 ± 0.15 | 67.52 ± 0.11 | 60.08 ± 0.23 |
| GAGGCAGCCGCGACCTG | – | -78.6 ± 3.5 | -76.7 ± 1.4 | – | -199 ± 10 | -198 ± 4 | – | -14.3 ± 0.27 | -12.88 ± 0.078 | – | – | 63.68 ± 0.2 | 79.56 ± 0.14 | 72.02 ± 0.12 | 66.28 ± 0.29 | 81.39 ± 0.49 | 74.37 ± 0.34 | 68.52 ± 0.17 | 82.28 ± 0.58 | 75.9 ± 0.24 | 69.83 ± 0.094 | 82.97 ± 0.38 | 76.878 ± 0.05 | 70.65 ± 0.094 | 83.76 ± 0.16 | 77.946 ± 0.052 | 71.79 ± 0.097 | 84.53 ± 0.52 | 78.61 ± 0.15 | 72.633 ± 0.05 |
| GATCTCTCTATCATCGTTTATTGGGTAT | -141 ± 12 | -122 ± 3.9 | -109 ± 3 | -377 ± 36 | -335 ± 11 | -301 ± 9 | -18.9 ± 0.91 | -14.3 ± 0.18 | -11.5 ± 0.081 | 73.08 ± 0.33 | 62.69 ± 0.48 | 55.1 ± 0.83 | 73.89 ± 0.35 | 64.3 ± 0.58 | 57.06 ± 0.4 | 74.81 ± 0.38 | 65.57 ± 0.42 | 58.33 ± 0.34 | 75.52 ± 0.2 | 66.23 ± 0.5 | 59.33 ± 0.081 | 76.276 ± 0.075 | 66.83 ± 0.22 | 59.89 ± 0.23 | 77.239 ± 0.047 | 67.61 ± 0.095 | 60.59 ± 0.19 | 77.914 ± 0.069 | 68.11 ± 0.096 | 61.27 ± 0.12 |
| GATGCCGCAGCGACCTG | – | -75.7 ± 2.1 | -77.6 ± 1.3 | – | -192 ± 5.9 | -202 ± 3.8 | – | -13.6 ± 0.14 | -12.42 ± 0.065 | – | 67.1 | 61.35 ± 0.33 | 76.6 ± 1.4 | 69.756 ± 0.045 | 64.23 ± 0.086 | 78.68 ± 0.64 | 72.16 ± 0.23 | 66.19 ± 0.1 | 80.46 ± 0.37 | 73.33 ± 0.28 | 67.4 ± 0.078 | 81.03 ± 0.31 | 74.43 ± 0.15 | 68.25 ± 0.097 | 82.09 ± 0.41 | 75.63 ± 0.13 | 69.34 ± 0.12 | 82.88 ± 0.26 | 76.48 ± 0.17 | 70.24 ± 0.13 |
| GATTGTATCATCGACATCACACTACC | -127 ± 9.1 | -137 ± 4.9 | -99.2 ± 2.2 | -336 ± 26 | -375 ± 14 | -271 ± 6.5 | -18.3 ± 0.7 | -16.1 ± 0.27 | -11.7 ± 0.069 | 73.69 ± 0.2 | 65.7 ± 0.68 | 56.3 ± 0.93 | 74.91 ± 0.39 | 67.05 ± 0.59 | 58.43 ± 0.52 | 76.04 ± 0.6 | 68.37 ± 0.47 | 59.81 ± 0.47 | 76.92 ± 0.26 | 68.77 ± 0.45 | 60.92 ± 0.21 | 77.78 ± 0.12 | 69.57 ± 0.28 | 61.49 ± 0.14 | 78.7 ± 0.1 | 70.36 ± 0.14 | 62.51 ± 0.2 | 79.317 ± 0.061 | 70.75 ± 0.1 | 63.05 ± 0.085 |
| GCAGGAGCCGCGACCTG | -100 ± 5.4 | -77.6 ± 1.8 | -81.2 ± 1.9 | -257 ± 15 | -197 ± 5.2 | -212 ± 5.6 | -17.2 ± 0.47 | -13.98 ± 0.13 | -12.81 ± 0.099 | – | 68.45 ± 0.49 | 62.56 ± 0.17 | 78.12 ± 0.35 | 71.31 ± 0.39 | 65.18 ± 0.082 | 79.75 ± 0.071 | 73.48 ± 0.49 | 66.99 ± 0.15 | 80.79 ± 0.2 | 74.78 ± 0.33 | 68.28 ± 0.17 | 81.76 ± 0.16 | 75.68 ± 0.15 | 69.26 ± 0.061 | 82.48 ± 0.27 | 76.9 ± 0.33 | 70.16 ± 0.069 | 83.26 ± 0.12 | 77.68 ± 0.29 | 71.01 ± 0.16 |
| GCCCGAGCATGACTGCG | -98.8 ± 4.5 | -83.7 ± 1.9 | -86.9 ± 2.4 | -255 ± 13 | -217 ± 5.5 | -231 ± 7.1 | -16.3 ± 0.36 | -13.6 ± 0.11 | -12.16 ± 0.1 | – | 65.4 ± 0.24 | 59.02 ± 0.17 | 75.41 ± 0.19 | 68.14 ± 0.36 | 61.59 ± 0.3 | 76.97 ± 0.085 | 70 ± 0.11 | 63.37 ± 0.21 | 77.92 ± 0.1 | 71.104 ± 0.068 | 64.41 ± 0.16 | 78.54 ± 0.1 | 71.926 ± 0.031 | 65.09 ± 0.084 | 79.72 ± 0.12 | 73.02 ± 0.13 | 66.12 ± 0.12 | 80.63 ± 0.26 | 73.82 ± 0.14 | 66.8 ± 0.27 |
| GCGGTTGGTGGCCAAC | -87 ± 3.6 | -80.6 ± 2.4 | -75.1 ± 2.4 | -223 ± 10 | -209 ± 7.1 | -197 ± 7.2 | -14.9 ± 0.28 | -12.9 ± 0.13 | -11.29 ± 0.089 | – | 63.49 ± 0.42 | 56.4 ± 0.12 | 72.845 ± 0.0061 | 65.54 ± 0.56 | 59.65 ± 0.13 | 74.66 ± 0.1 | 67.67 ± 0.49 | 61.64 ± 0.16 | 75.96 ± 0.21 | 68.96 ± 0.29 | 62.663 ± 0.048 | 76.8 ± 0.26 | 69.81 ± 0.25 | 63.516 ± 0.06 | 77.93 ± 0.21 | 71.07 ± 0.17 | 64.64 ± 0.11 | 78.54 ± 0.17 | 71.91 ± 0.09 | 65.39 ± 0.087 |
| GCTGAACTAACCACCA | -77.7 ± 3.3 | -73 ± 1.3 | -69.9 ± 2.3 | -201 ± 9.6 | -192 ± 3.9 | -188 ± 7 | -12.7 ± 0.18 | -10.92 ± 0.045 | -9.252 ± 0.03 | 62.4 ± 1.2 | 55.12 ± 0.072 | 47.5 ± 0.78 | 65.29 ± 0.31 | 57.81 ± 0.12 | 50.39 ± 0.32 | 67.03 ± 0.25 | 60.12 ± 0.057 | 52.54 ± 0.26 | 68.36 ± 0.31 | 61.33 ± 0.085 | 53.74 ± 0.18 | 69.23 ± 0.2 | 62.13 ± 0.097 | 54.62 ± 0.096 | 70.53 ± 0.31 | 63.33 ± 0.14 | 55.67 ± 0.093 | 71.61 ± 0.45 | 64.15 ± 0.058 | 56.62 ± 0.25 |
